# What was measured:
# human complement C3b [1] = target: human complement C3b (UniProt P01024); assay: flow cytometry on bacteria; details: Alexa488-labeled Fg 60 µg/ml; Efb (mutants) 0.5 µM; serum-opsonized S. aureus; buffer control est. 65 MFI; parent: est. 1300; read off a plot
# human complement C3b [2] = target: human complement C3b (UniProt P01024); assay: ELISA; details: C3b-coated wells, 50 nM Fg detected with peroxidase-conjugated anti-Fg antibody, read off a plot
# human fibrinogen (human) = human fibrinogen (human) (UniProt P02671)
# Sequence of UniProt P02671 (P02671 36-866, chain 1 of 3): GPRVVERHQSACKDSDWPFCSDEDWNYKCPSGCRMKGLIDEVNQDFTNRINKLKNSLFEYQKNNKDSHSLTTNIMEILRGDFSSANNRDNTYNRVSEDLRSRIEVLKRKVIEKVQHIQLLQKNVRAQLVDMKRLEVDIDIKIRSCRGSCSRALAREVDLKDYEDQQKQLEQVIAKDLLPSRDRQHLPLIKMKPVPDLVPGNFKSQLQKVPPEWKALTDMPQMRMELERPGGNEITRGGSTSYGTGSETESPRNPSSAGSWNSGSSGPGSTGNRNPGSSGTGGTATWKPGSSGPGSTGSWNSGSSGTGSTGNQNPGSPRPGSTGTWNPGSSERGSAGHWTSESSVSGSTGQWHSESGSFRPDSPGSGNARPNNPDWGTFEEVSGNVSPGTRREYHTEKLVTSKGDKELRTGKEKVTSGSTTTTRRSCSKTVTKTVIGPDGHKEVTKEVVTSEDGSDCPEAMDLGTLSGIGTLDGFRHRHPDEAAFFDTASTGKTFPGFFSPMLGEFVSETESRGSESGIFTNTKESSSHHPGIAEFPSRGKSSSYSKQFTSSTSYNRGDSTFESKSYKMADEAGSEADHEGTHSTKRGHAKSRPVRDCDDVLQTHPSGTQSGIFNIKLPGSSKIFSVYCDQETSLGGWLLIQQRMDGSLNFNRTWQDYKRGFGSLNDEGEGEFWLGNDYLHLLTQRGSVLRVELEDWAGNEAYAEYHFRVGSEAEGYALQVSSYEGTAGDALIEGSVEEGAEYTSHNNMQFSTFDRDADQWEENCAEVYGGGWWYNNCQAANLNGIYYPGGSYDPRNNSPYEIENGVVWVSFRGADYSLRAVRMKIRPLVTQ
# Sequence of UniProt P02671 (P02675 45-491, chain 2 of 3, further chain): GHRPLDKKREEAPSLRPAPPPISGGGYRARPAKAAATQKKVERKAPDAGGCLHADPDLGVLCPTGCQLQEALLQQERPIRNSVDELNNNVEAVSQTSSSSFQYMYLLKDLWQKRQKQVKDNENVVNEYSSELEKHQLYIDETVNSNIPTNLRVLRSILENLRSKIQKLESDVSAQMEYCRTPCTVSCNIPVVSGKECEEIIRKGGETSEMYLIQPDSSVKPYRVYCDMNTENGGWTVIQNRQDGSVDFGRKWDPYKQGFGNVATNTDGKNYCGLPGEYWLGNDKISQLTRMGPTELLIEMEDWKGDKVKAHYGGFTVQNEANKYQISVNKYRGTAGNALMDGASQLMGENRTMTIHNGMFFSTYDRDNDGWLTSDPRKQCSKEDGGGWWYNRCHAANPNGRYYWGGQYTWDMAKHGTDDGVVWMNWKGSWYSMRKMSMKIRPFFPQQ
# Sequence of UniProt P02671 (P02679 27-453, chain 3 of 3, further chain): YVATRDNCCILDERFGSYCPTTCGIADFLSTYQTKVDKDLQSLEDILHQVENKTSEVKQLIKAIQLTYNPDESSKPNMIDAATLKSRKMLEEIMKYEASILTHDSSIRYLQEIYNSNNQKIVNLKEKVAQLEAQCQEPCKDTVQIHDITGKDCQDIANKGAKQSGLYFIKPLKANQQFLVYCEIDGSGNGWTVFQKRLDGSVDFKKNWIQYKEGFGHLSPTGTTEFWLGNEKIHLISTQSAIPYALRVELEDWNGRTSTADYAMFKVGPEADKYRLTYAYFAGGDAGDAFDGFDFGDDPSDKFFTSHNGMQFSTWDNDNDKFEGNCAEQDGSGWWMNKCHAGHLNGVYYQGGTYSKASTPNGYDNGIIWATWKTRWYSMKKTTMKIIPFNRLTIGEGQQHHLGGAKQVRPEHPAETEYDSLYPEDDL
Substance,response (human complement C3b [1]),"response (human complement C3b [2]; Efb about 6 nM (fourth point, read from the x axis), parent: est. 0.93)","response (human complement C3b [2]; Efb about 25 nM (highest point, read from the x axis), parent: est. 0.91)","inhibition of phagocytosis of fluorescent S. aureus by human neutrophils in 2.5% human plasma, dose response of Efb (needs the interaction with C3b as well) (human fibrinogen (human))"
"GST-tagged full-length Extracellular fibrinogen binding protein (Efb), wild type (from UniProt A6QG59) R131E; N138E",180 MFI,0.2 OD450,0.23 OD450,–
"His-tagged Efb, wild type (from UniProt A6QG59 30-165) (natural protein)",–,–,–,0.08 µM
